From paper PMC9482650, “Quantitative fragmentomics allow affinity mapping of interactomes” (Nature Communications, 2022)

T1: SNTG1, Q9NSN8
T1 sequence (Q9NSN8 52-150, limits assumed, looked up): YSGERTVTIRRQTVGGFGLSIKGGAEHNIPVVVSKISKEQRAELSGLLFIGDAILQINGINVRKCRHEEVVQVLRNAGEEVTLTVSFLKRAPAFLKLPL

T2: LIN7B, Q9HAP6
T2 sequence (Q9HAP6 88-185, limits assumed, looked up): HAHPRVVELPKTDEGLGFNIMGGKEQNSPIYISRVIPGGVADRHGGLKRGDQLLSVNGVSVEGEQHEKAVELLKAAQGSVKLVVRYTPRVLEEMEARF

T3: TIAM2, Q8IVF5
T3 sequence (Q8IVF5 885-986, limits assumed, looked up): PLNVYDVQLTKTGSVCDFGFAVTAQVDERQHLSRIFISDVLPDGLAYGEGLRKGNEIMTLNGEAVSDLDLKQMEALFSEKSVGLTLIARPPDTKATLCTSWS

T4: RAPGEF6, Q8TEU7
T4 sequence (Q8TEU7 525-625, limits assumed, looked up): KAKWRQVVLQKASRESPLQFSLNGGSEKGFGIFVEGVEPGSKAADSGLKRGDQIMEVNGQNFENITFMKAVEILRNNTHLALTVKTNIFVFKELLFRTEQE

T5: TX1BP3, O14907
T5 sequence (O14907 10-122, limits assumed, looked up): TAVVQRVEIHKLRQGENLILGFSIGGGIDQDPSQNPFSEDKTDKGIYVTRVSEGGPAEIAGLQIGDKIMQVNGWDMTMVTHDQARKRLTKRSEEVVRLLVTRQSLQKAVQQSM

T6: HTRA3, P83110
T6 sequence (P83110 354-453, limits assumed, looked up): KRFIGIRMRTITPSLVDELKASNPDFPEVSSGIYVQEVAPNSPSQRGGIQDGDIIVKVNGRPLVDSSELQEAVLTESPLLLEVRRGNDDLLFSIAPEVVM

T7: PDZD2_2, O15018
T7 sequence (O15018 329-429, limits assumed, looked up): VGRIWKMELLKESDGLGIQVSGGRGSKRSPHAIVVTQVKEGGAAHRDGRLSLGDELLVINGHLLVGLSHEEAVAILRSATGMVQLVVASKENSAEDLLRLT

T8: DLG3_1, Q92796
T8 sequence (Q92796 125-227, limits assumed, looked up): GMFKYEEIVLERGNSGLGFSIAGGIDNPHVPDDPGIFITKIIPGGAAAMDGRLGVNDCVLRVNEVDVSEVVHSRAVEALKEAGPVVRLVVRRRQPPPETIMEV

T9: PCLO, Q9Y6V0
T9 sequence (Q9Y6V0 4491-4600, limits assumed, looked up): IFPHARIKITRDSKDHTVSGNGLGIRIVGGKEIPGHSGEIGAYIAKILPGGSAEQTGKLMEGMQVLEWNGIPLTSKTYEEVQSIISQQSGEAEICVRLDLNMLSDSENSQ


Legend:
Assay in all cases: holdup assay
Parameters in all cases: key: below the threshold = too weak to quantify, mostly under pKd 3.1 to 4
Conditions in all cases: plain residues with an end cap or a label only (N-terminal biotin on a linker: ado-ado)
[1] = target: T1, SNTG1, Q9NSN8
[2] = target: T2, LIN7B, Q9HAP6
[3] = target: LNX1_1, Q8TBB1
[4] = target: GOPC, Q9HD26
[5] = target: IL16_4, Q14005
[6] = target: SCRIB_3, Q14160
[7] = target: T3, TIAM2, Q8IVF5
[8] = target: MAGI2_3, Q86UL8
[9] = target: T4, RAPGEF6, Q8TEU7
[10] = target: FRMPD2_2, Q68DX3
[11] = target: NHERF4_2, Q86UT5
[12] = target: Inadl_1, Q8NI35
[13] = target: PDLIM1, O00151
[14] = target: T5, TX1BP3, O14907
[15] = target: Inadl_9, Q8NI35
[16] = target: DLG4_3, P78352
[17] = target: TJP2_1, Q9UDY2
[18] = target: TJP1_3, Q07157
[19] = target: T6, HTRA3, P83110
[20] = target: HTRA2, O43464
[21] = target: GRIP2_4, Q9C0E4
[22] = target: T7, PDZD2_2, O15018
[23] = target: DLG4_2, P78352
[24] = target: T8, DLG3_1, Q92796
[25] = target: Inadl_6, Q8NI35
[26] = target: LAP2, Q96RT1
[27] = target: T9, PCLO, Q9Y6V0
[28] = target: FRMPD2_1, Q68DX3
FRMPD2_1, Q68DX3, sequence (Q68DX3 770-861): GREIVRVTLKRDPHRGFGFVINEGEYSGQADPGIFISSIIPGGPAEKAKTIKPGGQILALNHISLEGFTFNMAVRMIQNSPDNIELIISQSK

SCRIB_3, Q14160, sequence (Q14160 999-1103): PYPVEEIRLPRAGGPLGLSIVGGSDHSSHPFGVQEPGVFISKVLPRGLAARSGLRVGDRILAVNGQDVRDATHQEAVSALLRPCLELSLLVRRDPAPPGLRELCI
PDLIM1, O00151, sequence (O00151 1-87): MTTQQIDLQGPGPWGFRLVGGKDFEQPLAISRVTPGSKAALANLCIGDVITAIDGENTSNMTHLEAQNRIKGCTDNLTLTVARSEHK
GRIP2_4, Q9C0E4, sequence (Q9C0E4 446-548): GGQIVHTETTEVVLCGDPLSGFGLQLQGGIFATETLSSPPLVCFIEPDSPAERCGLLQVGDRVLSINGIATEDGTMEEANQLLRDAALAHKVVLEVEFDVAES
LNX1_1, Q8TBB1, sequence (Q8TBB1 261-371): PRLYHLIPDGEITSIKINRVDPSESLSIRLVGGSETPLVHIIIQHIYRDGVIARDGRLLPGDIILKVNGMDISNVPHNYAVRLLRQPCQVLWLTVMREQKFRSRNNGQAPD
TJP2_1, Q9UDY2, sequence (Q9UDY2 24-128): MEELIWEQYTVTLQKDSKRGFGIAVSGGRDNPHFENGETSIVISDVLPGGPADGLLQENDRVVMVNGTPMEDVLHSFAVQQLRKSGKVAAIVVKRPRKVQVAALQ
LAP2, Q96RT1, sequence (Q96RT1 other isoform, or with tags, fused parts or gaps): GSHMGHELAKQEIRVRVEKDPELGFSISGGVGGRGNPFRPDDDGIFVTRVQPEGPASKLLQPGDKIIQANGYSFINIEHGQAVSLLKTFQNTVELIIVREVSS
MAGI2_3, Q86UL8, sequence (Q86UL8 600-682): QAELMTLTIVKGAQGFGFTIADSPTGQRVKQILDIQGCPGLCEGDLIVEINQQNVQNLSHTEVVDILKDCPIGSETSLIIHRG
NHERF4_2, Q86UT5, sequence (Q86UT5 220-308): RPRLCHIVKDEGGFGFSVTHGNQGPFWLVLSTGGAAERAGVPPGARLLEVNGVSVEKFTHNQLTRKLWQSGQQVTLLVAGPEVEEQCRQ
FRMPD2_2, Q68DX3, sequence (Q68DX3 944-1038): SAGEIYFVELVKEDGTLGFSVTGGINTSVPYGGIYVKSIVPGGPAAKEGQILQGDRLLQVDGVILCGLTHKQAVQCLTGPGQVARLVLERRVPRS
Inadl_9, Q8NI35, sequence (Q8NI35 1530-1615): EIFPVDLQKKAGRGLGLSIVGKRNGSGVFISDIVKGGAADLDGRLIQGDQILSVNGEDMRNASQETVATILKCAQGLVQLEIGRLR
DLG4_2, P78352, sequence (P78352 155-259): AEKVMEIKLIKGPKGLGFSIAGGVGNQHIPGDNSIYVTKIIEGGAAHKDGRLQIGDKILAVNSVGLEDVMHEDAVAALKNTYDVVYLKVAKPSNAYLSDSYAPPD
TJP1_3, Q07157, sequence (Q07157 416-512): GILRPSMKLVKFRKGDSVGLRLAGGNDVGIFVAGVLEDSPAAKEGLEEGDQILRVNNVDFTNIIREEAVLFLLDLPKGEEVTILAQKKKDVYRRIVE
DLG4_3, P78352, sequence (P78352 306-403): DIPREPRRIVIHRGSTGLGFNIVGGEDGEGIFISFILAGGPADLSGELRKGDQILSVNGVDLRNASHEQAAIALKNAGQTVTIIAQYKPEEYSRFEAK
HTRA2, O43464, sequence (O43464 355-458): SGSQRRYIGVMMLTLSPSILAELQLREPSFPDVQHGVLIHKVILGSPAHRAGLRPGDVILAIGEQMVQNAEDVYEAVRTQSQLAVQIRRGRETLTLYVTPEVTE
Inadl_1, Q8NI35, sequence (Q8NI35 113-229): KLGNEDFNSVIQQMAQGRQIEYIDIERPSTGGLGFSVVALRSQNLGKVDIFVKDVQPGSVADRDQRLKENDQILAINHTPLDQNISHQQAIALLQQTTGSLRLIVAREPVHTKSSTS
Inadl_6, Q8NI35, sequence (Q8NI35 1058-1167): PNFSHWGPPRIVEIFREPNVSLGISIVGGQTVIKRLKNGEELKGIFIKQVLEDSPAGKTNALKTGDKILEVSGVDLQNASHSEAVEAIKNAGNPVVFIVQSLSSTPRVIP
IL16_4, Q14005, sequence (Q14005 1229-1329): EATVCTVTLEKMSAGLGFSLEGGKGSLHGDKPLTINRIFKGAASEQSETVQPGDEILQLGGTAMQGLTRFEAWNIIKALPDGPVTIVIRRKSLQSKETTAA

Binder | pKd [1] | pKd [2] | pKd [3] | pKd [4] | pKd [5] | pKd [6] | pKd [7] | pKd [8] | pKd [9] | pKd [10] | pKd [11] | pKd [12] | pKd [13] | pKd [14] | pKd [15] | pKd [16] | pKd [17] | pKd [18] | pKd [19] | pKd [20] | also measured
SRSVVESDEL [MYPN, Q86TC9] | below the threshold | below the threshold | below the threshold | below the threshold | below the threshold | 3.51 | below the threshold | below the threshold | below the threshold | below the threshold | below the threshold | below the threshold | 5.11 | below the threshold | below the threshold | below the threshold | below the threshold | below the threshold | below the threshold | below the threshold | pKd [21]: below the threshold; pKd [22]: below the threshold; pKd [23]: below the threshold; pKd [24]: below the threshold; pKd [25]: below the threshold; pKd [26]: below the threshold; pKd [27]: below the threshold; pKd [28]: below the threshold
DTKNYKQTSV [CRIPT, Q9P021] | 4.12 | below the threshold | 3.78 | 3.87 | 3.71 | 4.98 | below the threshold | 3.94 | below the threshold | below the threshold | below the threshold | below the threshold | below the threshold | 5.4 | below the threshold | 5.39 | below the threshold | below the threshold | below the threshold | below the threshold | pKd [21]: below the threshold; pKd [22]: 4.76; pKd [23]: 4.9; pKd [24]: 3.69; pKd [25]: below the threshold; pKd [26]: 4.32; pKd [27]: below the threshold; pKd [28]: below the threshold
